Experimental findings from the supplement of paper PMC9112550, “Optimization of the antimicrobial peptide Bac7 by deep mutational scanning” (BMC Biology, 2022) are described below.

For this series, the system named is Escherichia coli TOP10. The series can be described thus: shrunken log2 fold change of peptide-encoding DNA abundance (4.5 h post-induction vs induction); higher = less antimicrobial activity (less host growth inhibition). The conditions noted are these: time post-induction: 4.5 h; library: site-saturation at positions 5, 18, 19, 20.
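Note: peptides expressed intracellularly from a pBAD plasmid library in pooled LB shake-flask culture, induced with 0.3% L-arabinose, DNA abundance read by NGS, three biological replicates, DESeq2 with apeglm shrinkage.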

For the sequence RRIRVRPPRLPRPRPRPNKHPRP, the “shrunken log2 fold change” value was -0.189.

Take RRIRIRPPRLPRPRPRPEFMPRP: the “shrunken log2 fold change” value is -0.25.

RRIRLRPPRLPRPRPRPLFPPRP: the “shrunken log2 fold change” value was -0.203.

Regarding RRIRCRPPRLPRPRPRPCGGPRP, the “shrunken log2 fold change” value amounted to 0.113.

In the case of RRIRMRPPRLPRPRPRPTCIPRP, the “shrunken log2 fold change” value is -0.00872.

As to RRIRQRPPRLPRPRPRPHMVPRP, the “shrunken log2 fold change” value is -0.0317.

RRIRYRPPRLPRPRPRPIIPPRP: the “shrunken log2 fold change” value was -0.825.

As for RRIRFRPPRLPRPRPRPRMCPRP, the “shrunken log2 fold change” value was 0.0779.

Regarding RRIRPRPPRLPRPRPRPNHEPRP, the “shrunken log2 fold change” value is -0.419.

Consider RRIRHRPPRLPRPRPRPDKAPRP, for which the “shrunken log2 fold change” value is -0.468.

On to RRIRKRPPRLPRPRPRPTHVPRP, for which the “shrunken log2 fold change” value was -0.305.

As for RRIRFRPPRLPRPRPRPNPTPRP, the “shrunken log2 fold change” value worked out at 0.0233.

Consider RRIRQRPPRLPRPRPRPMSFPRP, for which the “shrunken log2 fold change” value was 0.0381.

In the case of RRIRIRPPRLPRPRPRPMVHPRP, the “shrunken log2 fold change” value was -0.0468.

Turning to RRIRCRPPRLPRPRPRPFQNPRP, the “shrunken log2 fold change” value was -0.0078.

In the case of RRIRGRPPRLPRPRPRPPTSPRP, the “shrunken log2 fold change” value stood at 0.879.

With RRIRYRPPRLPRPRPRPLTTPRP, the “shrunken log2 fold change” value was -0.404.

Take RRIRERPPRLPRPRPRPKDIPRP: the “shrunken log2 fold change” value stood at 0.0209.

For the sequence RRIRSRPPRLPRPRPRPHSWPRP, the “shrunken log2 fold change” value came out at 0.122.

On to RRIRNRPPRLPRPRPRPPSSPRP, for which the “shrunken log2 fold change” value was -0.0814.

Take RRIRARPPRLPRPRPRPFAVPRP: the “shrunken log2 fold change” value worked out at 0.129.

Turning to RRIRMRPPRLPRPRPRPEAPPRP, the “shrunken log2 fold change” value was 3.4.

Turning to RRIRGRPPRLPRPRPRPVARPRP, the “shrunken log2 fold change” value turned out to be 0.58.

For the sequence RRIRTRPPRLPRPRPRPTRPPRP, the “shrunken log2 fold change” value is 0.614.

As for RRIRDRPPRLPRPRPRPPLQPRP, the “shrunken log2 fold change” value came to 0.414.

In the case of RRIRKRPPRLPRPRPRPTFFPRP, the “shrunken log2 fold change” value is 0.368.

Consider RRIRSRPPRLPRPRPRPVIKPRP, for which the “shrunken log2 fold change” value is -0.476.

As to RRIRSRPPRLPRPRPRPYLYPRP, the “shrunken log2 fold change” value is -0.065.

RRIRRRPPRLPRPRPRPSRVPRP: the “shrunken log2 fold change” value turned out to be 0.553.

As for RRIRCRPPRLPRPRPRPHDDPRP, the “shrunken log2 fold change” value is -0.104.

As for RRIRDRPPRLPRPRPRPVRRPRP, the “shrunken log2 fold change” value worked out at 0.971.

Consider RRIRDRPPRLPRPRPRPMQWPRP, for which the “shrunken log2 fold change” value is 0.0918.

As for RRIRCRPPRLPRPRPRPMMHPRP, the “shrunken log2 fold change” value was -0.175.

As for RRIRIRPPRLPRPRPRPGGQPRP, the “shrunken log2 fold change” value stood at 0.112.

Turning to RRIRGRPPRLPRPRPRPRFGPRP, the “shrunken log2 fold change” value was found to be 0.662.

Take RRIRWRPPRLPRPRPRPKGGPRP: the “shrunken log2 fold change” value amounted to 0.536.

With RRIRWRPPRLPRPRPRPEWGPRP, the “shrunken log2 fold change” value is 0.47.

Take RRIRSRPPRLPRPRPRPESEPRP: the “shrunken log2 fold change” value was found to be 0.0793.

RRIRLRPPRLPRPRPRPCDMPRP: the “shrunken log2 fold change” value is -0.0352.

Regarding RRIRSRPPRLPRPRPRPFSLPRP, the “shrunken log2 fold change” value was -0.506.

RRIRLRPPRLPRPRPRPQPPPRP: the “shrunken log2 fold change” value turned out to be 0.517.

With RRIRKRPPRLPRPRPRPKYKPRP, the “shrunken log2 fold change” value is -0.19.

As to RRIRQRPPRLPRPRPRPIISPRP, the “shrunken log2 fold change” value is -0.189.

RRIRTRPPRLPRPRPRPGLKPRP: the “shrunken log2 fold change” value was found to be 0.0372.

As for RRIRLRPPRLPRPRPRPKEPPRP, the “shrunken log2 fold change” value was -0.0333.

In the case of RRIRCRPPRLPRPRPRPVWPPRP, the “shrunken log2 fold change” value stood at 0.239.

With RRIRARPPRLPRPRPRPAMDPRP, the “shrunken log2 fold change” value was 0.568.

As for RRIRGRPPRLPRPRPRPEAAPRP, the “shrunken log2 fold change” value came out at 3.27.

RRIRSRPPRLPRPRPRPQDYPRP: the “shrunken log2 fold change” value is -0.356.

As for RRIRQRPPRLPRPRPRPWRKPRP, the “shrunken log2 fold change” value is -0.0153.

Consider RRIRDRPPRLPRPRPRPLMIPRP, for which the “shrunken log2 fold change” value turned out to be 0.072.

Consider RRIRPRPPRLPRPRPRPFIDPRP, for which the “shrunken log2 fold change” value was -0.304.

Consider RRIRARPPRLPRPRPRPFFSPRP, for which the “shrunken log2 fold change” value is -0.0124.

On to RRIRFRPPRLPRPRPRPRQEPRP, for which the “shrunken log2 fold change” value came out at 0.0178.

As for RRIRHRPPRLPRPRPRPKHTPRP, the “shrunken log2 fold change” value is -0.104.

Take RRIRKRPPRLPRPRPRPTWAPRP: the “shrunken log2 fold change” value came to 0.0687.

As to RRIRNRPPRLPRPRPRPHVNPRP, the “shrunken log2 fold change” value is -0.237.

As for RRIRARPPRLPRPRPRPLWLPRP, the “shrunken log2 fold change” value is 0.302.

Consider RRIRRRPPRLPRPRPRPYFWPRP, for which the “shrunken log2 fold change” value turned out to be 0.0638.

With RRIRGRPPRLPRPRPRPSELPRP, the “shrunken log2 fold change” value is 0.404.

RRIRERPPRLPRPRPRPYAVPRP: the “shrunken log2 fold change” value was -0.441.

Consider RRIRDRPPRLPRPRPRPGHAPRP, for which the “shrunken log2 fold change” value is 0.648.

Turning to RRIRRRPPRLPRPRPRPCLTPRP, the “shrunken log2 fold change” value was found to be 0.0744.

Regarding RRIRHRPPRLPRPRPRPFHHPRP, the “shrunken log2 fold change” value was found to be 0.0477.

On to RRIRNRPPRLPRPRPRPFMNPRP, for which the “shrunken log2 fold change” value was -0.195.

Take RRIRSRPPRLPRPRPRPDIRPRP: the “shrunken log2 fold change” value is -0.0108.

In the case of RRIRPRPPRLPRPRPRPCRTPRP, the “shrunken log2 fold change” value is -0.194.

On to RRIRPRPPRLPRPRPRPHIFPRP, for which the “shrunken log2 fold change” value was -0.0487.

In the case of RRIRYRPPRLPRPRPRPNMNPRP, the “shrunken log2 fold change” value is -0.882.

For RRIRPRPPRLPRPRPRPCRYPRP, the “shrunken log2 fold change” value was 0.0858.

For RRIRQRPPRLPRPRPRPMFVPRP, the “shrunken log2 fold change” value is 0.493.

Consider RRIRSRPPRLPRPRPRPELFPRP, for which the “shrunken log2 fold change” value stood at 0.104.

For the sequence RRIRLRPPRLPRPRPRPLDMPRP, the “shrunken log2 fold change” value is -0.358.

In the case of RRIRTRPPRLPRPRPRPPRRPRP, the “shrunken log2 fold change” value was found to be 0.386.

Consider RRIRLRPPRLPRPRPRPCAYPRP, for which the “shrunken log2 fold change” value was -0.189.

As to RRIRSRPPRLPRPRPRPLWPPRP, the “shrunken log2 fold change” value stood at 0.229.

RRIRGRPPRLPRPRPRPYHTPRP: the “shrunken log2 fold change” value was -0.779.

As for RRIRPRPPRLPRPRPRPTNLPRP, the “shrunken log2 fold change” value was -0.107.

For the sequence RRIRRRPPRLPRPRPRPADLPRP, the “shrunken log2 fold change” value was -0.141.

In the case of RRIRWRPPRLPRPRPRPVWQPRP, the “shrunken log2 fold change” value was found to be 0.301.

Take RRIRPRPPRLPRPRPRPDLIPRP: the “shrunken log2 fold change” value was -0.036.

Consider RRIRMRPPRLPRPRPRPDYMPRP, for which the “shrunken log2 fold change” value was -0.00256.

On to RRIRFRPPRLPRPRPRPNVTPRP, for which the “shrunken log2 fold change” value was -0.724.

As for RRIRRRPPRLPRPRPRPSWRPRP, the “shrunken log2 fold change” value worked out at 0.355.

Regarding RRIRTRPPRLPRPRPRPADVPRP, the “shrunken log2 fold change” value is -0.391.

In the case of RRIRKRPPRLPRPRPRPDWQPRP, the “shrunken log2 fold change” value was -0.0216.

On to RRIRFRPPRLPRPRPRPGDDPRP, for which the “shrunken log2 fold change” value is 0.342.

With RRIRFRPPRLPRPRPRPHMYPRP, the “shrunken log2 fold change” value was -1.28.

On to RRIRQRPPRLPRPRPRPRIKPRP, for which the “shrunken log2 fold change” value worked out at 0.127.

For RRIRRRPPRLPRPRPRPQFQPRP, the “shrunken log2 fold change” value amounted to 0.00665.

Turning to RRIRARPPRLPRPRPRPGEVPRP, the “shrunken log2 fold change” value is 0.935.

Turning to RRIRSRPPRLPRPRPRPWWSPRP, the “shrunken log2 fold change” value was -0.237.

Take RRIRKRPPRLPRPRPRPNMGPRP: the “shrunken log2 fold change” value is -0.215.

In the case of RRIRQRPPRLPRPRPRPVDAPRP, the “shrunken log2 fold change” value is -0.0176.

As for RRIRMRPPRLPRPRPRPFFLPRP, the “shrunken log2 fold change” value is -0.199.

RRIRLRPPRLPRPRPRPKGHPRP: the “shrunken log2 fold change” value is -0.0999.

As to RRIRQRPPRLPRPRPRPDTSPRP, the “shrunken log2 fold change” value came to 0.00601.

Regarding RRIRFRPPRLPRPRPRPCPMPRP, the “shrunken log2 fold change” value was -0.00789.

For the sequence RRIRTRPPRLPRPRPRPRTEPRP, the “shrunken log2 fold change” value was 0.153.

With RRIRYRPPRLPRPRPRPPADPRP, the “shrunken log2 fold change” value came to 0.115.

Take RRIRKRPPRLPRPRPRPNCRPRP: the “shrunken log2 fold change” value stood at 0.00408.

For RRIRDRPPRLPRPRPRPCWMPRP, the “shrunken log2 fold change” value was -0.0868.

For RRIRMRPPRLPRPRPRPNHIPRP, the “shrunken log2 fold change” value was -0.407.

RRIRKRPPRLPRPRPRPAPLPRP: the “shrunken log2 fold change” value was determined as 0.929.

Turning to RRIRWRPPRLPRPRPRPHMTPRP, the “shrunken log2 fold change” value is 0.118.

As for RRIRARPPRLPRPRPRPSNNPRP, the “shrunken log2 fold change” value was -0.376.

For RRIRCRPPRLPRPRPRPVEWPRP, the “shrunken log2 fold change” value was 0.000166.

In the case of RRIRSRPPRLPRPRPRPMTSPRP, the “shrunken log2 fold change” value is -0.0553.

RRIRPRPPRLPRPRPRPSRMPRP: the “shrunken log2 fold change” value is -0.114.

With RRIRCRPPRLPRPRPRPAQAPRP, the “shrunken log2 fold change” value came out at 0.147.

As for RRIRCRPPRLPRPRPRPMHWPRP, the “shrunken log2 fold change” value was found to be 0.00478.

Take RRIRHRPPRLPRPRPRPWVDPRP: the “shrunken log2 fold change” value was 0.0471.

Take RRIRMRPPRLPRPRPRPNFEPRP: the “shrunken log2 fold change” value was found to be 0.422.

As to RRIRTRPPRLPRPRPRPQMVPRP, the “shrunken log2 fold change” value was -0.37.

On to RRIRMRPPRLPRPRPRPMRTPRP, for which the “shrunken log2 fold change” value worked out at 0.502.

With RRIRYRPPRLPRPRPRPGEQPRP, the “shrunken log2 fold change” value is 0.0237.

In the case of RRIRSRPPRLPRPRPRPVDGPRP, the “shrunken log2 fold change” value was 0.826.

For the sequence RRIRERPPRLPRPRPRPEFVPRP, the “shrunken log2 fold change” value stood at 0.137.

Turning to RRIRARPPRLPRPRPRPVGHPRP, the “shrunken log2 fold change” value came to 0.189.

For RRIRWRPPRLPRPRPRPEFWPRP, the “shrunken log2 fold change” value was 0.6.

RRIRCRPPRLPRPRPRPATIPRP: the “shrunken log2 fold change” value was -0.55.

As to RRIRERPPRLPRPRPRPEHHPRP, the “shrunken log2 fold change” value was -0.543.

For the sequence RRIRTRPPRLPRPRPRPPRTPRP, the “shrunken log2 fold change” value worked out at 0.281.

Take RRIRHRPPRLPRPRPRPWINPRP: the “shrunken log2 fold change” value was -0.616.

As to RRIRKRPPRLPRPRPRPAICPRP, the “shrunken log2 fold change” value worked out at 0.0922.
